From patent US11643670B2, “Methods of enhancing chromosomal homologous recombination” (Massachusetts Institute of Technology, priority 2018, dated 2023)

Experiments:
Chd2 locus = assay: Chd2^R1684H knock-in by pronuclear injection of Cas9/crRNA/tracrRNA and ssODN, genotyping of cultured embryos; type: cell-based, mouse
Experimental: tracrRNA, crRNAs, and ssODNs were synthesized by Integrated DNA Technologies (TABLE 1). All injection mixtures were prepared in a final volume of 50 μL according to the following methodology: Using RNase-free water, reagents, and consumables, crRNA (final concentration 0.61 μM), tracrRNA (final concentration 0.61 μM), and ultrapure Tris-HCl, pH 7.39 (final concentration 10 mM, ThermoFisher) were mixed and incubated at 95° C. for 5 minutes. The mixtures were cooled to room temperature for 10 minutes on the benchtop, and then, EnGen Cas9-NLS S. pyogenes (New England Biolabs) was added to a final concentration of 30 ng/μL. The mixtures were incubated at 37° C. for 15 minutes before adding any remaining components: ssODN (final concentration 3 ng/μL or 30 ng/μL), RAD51 (Creative Biomart, final concentration 10 ng/μL). Injection mixtures were stored on ice and briefly heated to 37° C. prior to injection. For experiments utilizing RS-1, embryos were cultured in KSOM-AA (EMD Millipore MR-121-D) with […] RS-1 (Sigma) dissolved in DMSO or DMSO (Sigma, 1:1000) for 24 hours, washed, and cultured in EmbryoMax FHM HEPES Buffered Medium (Sigma) until collection for genotyping.
Female mice (4-5 weeks old, C57BL/6N) were superovulated by IP injection of PMS (5 IU/mouse, three days prior to microinjection) and hCG (5 IU/mouse, 47 hours after PMS injection) and then paired with males. […]

R1684H locus = assay: Genotyping of F1 offspring of F0 Chd2^R1684H/R1684H animals made by the IVF strategy; type: in vivo, mouse; conditions: F0 homozygotes (IVF strategy including RAD51) crossed with wildtype C57Bl/6N
Experimental: Tail snips (˜0.5 cm length) were collected from animals, placed in 75 μL alkaline lysis buffer (25 mM NaOH, 0.2 mM EDTA), and incubated at 95° C. for 30 minutes. Digestion was stopped via addition of 75 μL neutralization buffer (40 mM Tris-HCl pH 5.0). Samples were stored at 4° C. until genotyping.
Chd2^R1684H genotyping was performed via a two-step, nested approach. Except for experiments described in FIGS. 3A-3G, all 8 μL of embryo DNA were used as input for the initial, long round of PCR. Genotyping of mouse pups and adult animals was performed using 2 μL of purified tail DNA. For all embryo genotyping, reactions mixtures were set up in a UV-sterilized laminar flow hood using sterile reagents and filter tips to avoid contamination. All PCR was performed using Biolase DNA Polymerase (Bioline), fresh aliquots of dNTPs (New England Biolabs), and 2% DMSO (final concentration). Primer pair #1 was used for FIGS. 1A-1E, FIGS. 2A-2E, FIGS. 3A-3G, FIG. 5, FIGS. 7A-7C, FIG. 8, and FIG. 9. All other experiments utilized primer pair #2 to further rule out large deletions that could disrupt primer binding sites. 20 cycles of amplification were performed using 30 second extension and annealing times and an annealing temperature of 67° C. Nested PCR was then performed using 2 μL of the initial 25 μL PCR reaction as input. […]

B1: RAD51: recombinant human strand exchange protein RAD51 (Creative Biomart RAD51-134H), transcript variant 4 (protein, UniProt Q06609 2-339, looked up)
DNA repair protein RAD51 …: AMQMQLEANADTSVEEESFGPQPISRLEQCGINANDVKKLEEAGFHTVEAVAYAPKKELINIKGISEAKADKILAEAAKLVPMGFTTATEFHQRRSEIIQITTGSKELDKLLQGGIETGSITEMFGEFRTGKTQICHTLAVTCQLPIDRGGGEGKAMYIDTEGTFRPERLLAVAERYGLSGSDVLDNVAYARAFNTDHQTQLLYQASAMMVESRYALLIVDSATALYRTDYSGRGELSARQMHLARFLRMLLRLADEFGVAVVITNQVVAQVDGAAMFAADPKKPIGGNIIAHASTTRLYLRKGRGETRICKIYDSPCLPEAEAMFAINADGVGDAKD
- homozygous KI rate relative to injection without RAD51 (Chd2 locus): more than doubled
- F1 offspring heterozygous for the R1684H mutation (R1684H locus): 100%
